# According to US6861578B1, “Method for plant protection against insects or nematodes by transformation with a nucleic acid encoding equistatin” (Plant Research International B.V., priority 1997, dated 2005):
# B1: rat stefin A (protein, UniProt P01039 1-103, looked up)
# chain: MDPGTTGIVGGVSEAKPATPEIQEVADKVKRQLEEKTNEKYEKFKVVEYKSQVVAGQILFMKVDVGNGRFLHMKVLRGLSGDDDLKLLDYQTNKTKNDELTDF
# B2: Recombinant Kunitz PCPI8.3 (produced in Pichia pastoris) (protein, potato, UniProt P20347 43-222, looked up)
# chain: LVLPEVYDQDGNPLRIGERYIINNPLLGAGAVYLYNIGNLQCPNAVLQHMSIPQFLGEGTPVVFVRKSESDYGDVVRVMTVVYIKFFVKTTKLCVDQTVWKVNDEQLVVTGGKVGNENDIFKIMKTDLVTPGGSKYVYKLLHCPSHLGCKNIGGNFKNGYPRLVTVDDDKDFIPFVFIKA
# B3: porcine stefin D1 (protein, UniProt P35479 1-103, looked up)
# chain: MESEEMLAGGLTEPRPATPEIQEIANKVKPQLEEKTNKTYEKFEAIIYRSQVVAGTNYYIKVHVGGNNYVHIRVFQSLPHQEDPLKLIGYQVDKTKDDELTGF
# B4: bovine kininogen: Type III cystatin (protein, UniProt P01044 19-621, looked up)
# Kininogen-1: QESSQEIDCNDQDVFKAVDAALTKYNSENKSGNQFVLYRITEVARMDNPDTFYSLKYQIKEGDCPFQSNKTWQDCDYKDSAQAATGECTATVAKRGNMKFSVAIQTCLITPAEGPVVTAQYECLGCVHPISTKSPDLEPVLRYAIQYFNNNTSHSHLFDLKEVKRAQRQVVSGWNYEVNYSIAQTNCSKEEFSFLTPDCKSLSSGDTGECTDKAHVDVKLRISSFSQKCDLYPVKDFVQPPTRLCAGCPKPIPVDSPDLEEPLSHSIAKLNAEHDGAFYFKIDTVKKATVQVVAGLKYSIVFIARETTCSKGSNEELTKSCEINIHGQILHCDANVYVVPWEEKVYPTVNCQPLGQTSLMKRPPGFSPFRSVQVMKTEGSTTVSLPHSAMSPVQDEERDSGKEQGPTHGHGWDHGKQIKLHGLGLGHKHKHDQGHGHHGSHGLGHGHQKQHGLGHGHKHGHGHGKHKNKGKNNGKHYDWRTPYLASSYEDSTTSSAQTQEKTEETTLSSLAQPGVAITFPDFQDSDLIATVMPNTLPPHTESDDDWIPDIQTEPNSLAFKLISDFPETTSPKCPSRPWKPVNGVNPTVEMKESHDFDLVDALL
# B5: potato multicystatin (protein, UniProt P37842 1-756, looked up)
# chain: MAIVGGLVDVPFENKVEFDDLARFAVQDYNQKNDSSLEFKKVLNVKQQIVAGIMYYITFEATEGGNKKEYEAKILLRKWEDLKKVVGFKLVGDDSTMPGGIVNVPNPNNTKFQELARFAIQDYNKKQNAHLEFVENLNVKEQVVAGIMYYITLAATDDAGKKKIYKAKIWVKEWEDFKKVVEFKLVGDDIAKLGGITDVPFPNNPEFQDLARFAIQVYNKKENVHLEFVENLNVKQQVVAGMMYYITLAAIDAGKKKIYETKIWVKEWEDFKKVVEFKLVGDDSAKTGGIINVPNPNSPEFQDLARFAVQDYNNTQNAHLEFVENLNVKEQLVSGMMYYITLAATDAGNKKEYEAKIWVKEWEDFKKVIDFKLVGNDSAKKLGGFTEVPFPNSPEFQDLTRFAVHQYNKDQNAHLEFVENLNVKKQVVAGMLYYITFAATDGGKKKIYETKIWVKVWENFKKVVEFKLVGDDSAKLGGIINVPFPNNPEFQDLARFAVQDYNKKENAHLEFVENLNVKEQLVAGMLYYITLVAIDAGKKKIYEAKIWVKEWENFKKVIEFKLIGDDSAIIGGFTDVPFPNNPEFQDLARFAVQDYNKKENAHLEYVENLNVKEQLVAGMIYYITLVATDAGKKKIYEAKIWVKEWEDFKKVVEFKLVGDDSAKPGGIIIVPFPNSPEFQDLARFAVQDFNKKENGHLEFVENLNVKEQVVAGMMYYITLAATDARKKEIYETKILVKEWENFKEVQEFKLVGDATK
# B6: chicken cystatin (protein, UniProt P01038 24-139, looked up)
# chain: SEDRSRLLGAPVPVDENDEGLQRALQFAMAEYNRASNDKYSSRVVRVISAKRQLVSGIKYILQVEIGRTTCPKSSGDLQSCEFHDEPEMAKYTTCTFVVYSIPWLNQIKLLESKCQ
# B7: human cystatin c (protein, UniProt P01034 27-146, looked up)
# chain: SSPGKPPRLVGGPMDASVEEEGVRRALDFAVGEYNKASNDMYHSRALQVVRARKQIVAGVNYFLDVELGRTTCTKTQPNLDNCPFHDQPHLKRKAFCSFQIYAVPWQGTMTLSKSTCQDA
# B8: porcine stefin B (protein, UniProt Q29290 1-98, looked up)
# chain: MMCGAPSATQPATAEIQAIADKVKSQLEEKENKTFPVFKAVEFKSQVVAGRNLFIKVQVDDDDFVHLRVFESLPHENKPLTLSSYQTNKSRHDELTYF
# What was measured:
# [1] = target: potato protease inhibitor-insensitive cysteine proteases of Colorado potato beetle (Leptinotarsa decemlineata) larval gut extracts; assay: cell-based or functional assay
# [2] = target: proteases in extracts of adult leafminer flies (Liriomyza trifolii); assay: cell-based or functional assay
# [3] = system: Colorado potato beetle larval gut extracts (potato protease inhibitor-insensitive cysteine proteases); assay: General proteolytic activity of Colorado potato beetle larval gut extracts, azocasein; type: biochemical, Leptinotarsa decemlineata
# From the text: Guts of final instar Colorado potato beetle larvae reared on methyl jasmonate induced plants were isolated and extracted essentially as described (Bolter and Jongsma, J. Insect Physiol. 41: 1071-1078). In these gut extracts the proteases that are sensitive to the protease inhibitors of potato are already complexed. The residual protease activity is composed of potato protease-inhibitor-insensitive proteases which were induced in response to the methyl jasmonate induced potato inhibitors. These proteases are the proteases that render the beetle larvae insensitive to protease inhibitor defense of the potato plant. Wle tested a broad range of different cysteisie protease inhibitors for activity specifically against these induced potato protease inhibitor-insensitive cysteine protesses. Nearly all of these inhibitors were purified at the Jozef Stefan Institute in Slovenia. Testing their potential against Colorado potato beetle was done using both general protein substrates (azocasein, table 2) as well as specific synthetic substrates (L-Arg-pNA, table 3; pGlu-Phe-Leu-pNA, table 4; Z-Phe-Arg-pNA, table 5; Z-Arg-Arg-pNA, table 6). In specific cases inhibitors were tested at two concentrations, eauimolar and in excess to the protease, in order to obtain an indication of the tightness of the complex. […] Importantly, this class of inhibitors was capable of inhibiting nearly all general cysteine protease activity. The equistatin peptide molecule and a functional derivative thereof were not very active against the aminopeptidase-like cysteine protease activity. […] The best combination of inhibitors for full toxicity against the Colorado potato beetle would therefore be a combination of equistatin or p41 invariant chain fragment and stefin-like inhibitors.
molecule,measurement,setting,value
human kininogen 3rd domain (from UniProt P01042 273-376),residual general proteolytic activity (azocasein) in excess of inhibitor (% residual activity),[1],20
lens cystatin,residual general proteolytic activity (azocasein) in excess of inhibitor (% residual activity),[1],60
bovine kininogen,residual general proteolytic activity (azocasein) in excess of inhibitor (% residual activity),[1],110
bromelain inhibitor,residual general proteolytic activity (azocasein) in excess of inhibitor (% residual activity),[1],110
PCPI 6.6,residual general proteolytic activity (azocasein) in excess of inhibitor (% residual activity),[1],120
Aspartic protease inhibitor (API) purified from potato,"residual protease activity (FITC-hemoglobin), pH 3.5 (% residual activity)",[2],37
human LMW kininogen (from UniProt P01042 19-427),residual general proteolytic activity (azocasein) in excess of inhibitor (% residual activity),[1],65
Recombinant human stefin A (from UniProt P01040 1-98),"residual amino-peptidase activity (L-Arg-pNA), equimolar inhibitor (% of residual activity)",[1],60
same,"residual amino-peptidase activity (L-Arg-pNA), excess inhibitor (% of residual activity)",[1],10
same,"residual broad spectrum endoprotease activity (Z-Phe-Arg-pNA), equimolar inhibitor (% of residual activity)",[1],95
same,"residual broad spectrum endoprotease activity (Z-Phe-Arg-pNA), excess inhibitor (% of residual activity)",[1],80
same,residual general proteolytic activity (azocasein) in excess of inhibitor (% residual activity),[1],90
same,"residual narrow spectrum endoprotease activity (Z-Arg-Arg-pNA), excess inhibitor (% of residual activity)",[1],90
same,"residual tri-peptidil-peptidase and endoprotease activity (pGlu-Phe-Leu-pNA), equimolar inhibitor (% of residual activity)",[1],95
same,"residual tri-peptidil-peptidase and endoprotease activity (pGlu-Phe-Leu-pNA), excess inhibitor (% of residual activity)",[1],90
Chelidonium majus cystatin,residual general proteolytic activity (azocasein) in excess of inhibitor (% residual activity),[1],100
"Recombinant potato cystatin (p.cystatin), a monomer of multicystatin expressed as a fusion protein with glutathione-S-transferase","residual protease activity (FITC-hemoglobin), pH 3.5 (% residual activity)",[2],73
soybean cystatin,residual general proteolytic activity (azocasein) in excess of inhibitor (% residual activity),[1],65
porcine stefin D2 (from UniProt P80736 1-35),residual general proteolytic activity (azocasein) in excess of inhibitor (% residual activity),[1],105
cowpea cystatin,residual general proteolytic activity (azocasein) in excess of inhibitor (% residual activity),[1],75
B1,residual general proteolytic activity (azocasein) in excess of inhibitor (% residual activity),[1],90
B2,"residual protease activity (FITC-hemoglobin), pH 3.5 (% residual activity)",[2],43
B3,residual general proteolytic activity (azocasein) in excess of inhibitor (% residual activity),[1],105
B4,Residual activity in excess of inhibitor,[3],110%
B5,Residual activity in excess of inhibitor,[3],90%
same,residual general proteolytic activity (azocasein) in excess of inhibitor (% residual activity),[1],90
B6,Residual activity in excess of inhibitor,[3],105%
same,residual general proteolytic activity (azocasein) in excess of inhibitor (% residual activity),[1],105
B7,Residual activity in excess of inhibitor,[3],105%
same,residual general proteolytic activity (azocasein) in excess of inhibitor (% residual activity),[1],105
B8,Residual activity in excess of inhibitor,[3],100%
same,residual general proteolytic activity (azocasein) in excess of inhibitor (% residual activity),[1],100
